What follows are sequences tested on Escherichia coli TOP10 (assay: shrunken log2 fold change of peptide-encoding DNA abundance (4.5 h post-induction vs induction); higher = less antimicrobial activity (less host growth inhibition)). Conditions: time post-induction: 4.5 h; library: site-saturation at positions 5, 18, 19, 20.
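Note: peptides expressed intracellularly from a pBAD plasmid library in pooled LB shake-flask culture, induced with 0.3% L-arabinose, DNA abundance read by NGS, three biological replicates, DESeq2 with apeglm shrinkage.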

Sequence | shrunken log2 fold change
RRIRPRPPRLPRPRPRPTCKPRP | -0.0419
RRIRHRPPRLPRPRPRPKSKPRP | -0.598
RRIRDRPPRLPRPRPRPGQRPRP | 0.0563
RRIRDRPPRLPRPRPRPFLKPRP | -0.212
RRIRQRPPRLPRPRPRPMPCPRP | -0.00136
RRIRLRPPRLPRPRPRPECTPRP | 0.114
RRIRQRPPRLPRPRPRPKQSPRP | -0.0143
RRIRDRPPRLPRPRPRPIDSPRP | -0.0258
RRIRYRPPRLPRPRPRPIHNPRP | -0.438
RRIRGRPPRLPRPRPRPPKVPRP | 0.762
RRIRNRPPRLPRPRPRPHMAPRP | -0.401
RRIRNRPPRLPRPRPRPTLYPRP | -0.3
RRIRQRPPRLPRPRPRPGYMPRP | -0.131
RRIRRRPPRLPRPRPRPQFRPRP | -0.165
RRIRDRPPRLPRPRPRPGCFPRP | 0.565
RRIRARPPRLPRPRPRPAKWPRP | 0.273
RRIRKRPPRLPRPRPRPRVKPRP | -0.0843
RRIRWRPPRLPRPRPRPYVMPRP | -0.511
RRIRSRPPRLPRPRPRPQRYPRP | -0.167
RRIRIRPPRLPRPRPRPWLGPRP | 0.0945
RRIRARPPRLPRPRPRPWFWPRP | 0.544
RRIRQRPPRLPRPRPRPHTRPRP | 0.107
RRIRVRPPRLPRPRPRPQMNPRP | -0.0919
RRIRKRPPRLPRPRPRPLHKPRP | 0.342
RRIRQRPPRLPRPRPRPSNEPRP | -0.5

Sequence | shrunken log2 fold change
RRIRFRPPRLPRPRPRPATCPRP | 0.00724
RRIRSRPPRLPRPRPRPLTNPRP | -0.101
RRIRCRPPRLPRPRPRPDCCPRP | -0.206
RRIRIRPPRLPRPRPRPISTPRP | -1.54
RRIRGRPPRLPRPRPRPCLKPRP | 0.213
RRIRQRPPRLPRPRPRPMTAPRP | 0.291
RRIRKRPPRLPRPRPRPVCEPRP | 0.552
RRIRCRPPRLPRPRPRPFLQPRP | 1.41
RRIRCRPPRLPRPRPRPAIMPRP | -0.0676
RRIRQRPPRLPRPRPRPTAEPRP | 0.363
RRIRTRPPRLPRPRPRPTSMPRP | 0.308
RRIRPRPPRLPRPRPRPTAAPRP | 0.227
RRIRHRPPRLPRPRPRPEGWPRP | 0.695
RRIRMRPPRLPRPRPRPIFVPRP | -0.111
RRIRMRPPRLPRPRPRPGFLPRP | 0.113
RRIRCRPPRLPRPRPRPPVYPRP | 0.000934
RRIRNRPPRLPRPRPRPVDLPRP | -0.21
RRIRIRPPRLPRPRPRPQARPRP | -0.115
RRIRNRPPRLPRPRPRPQMKPRP | -0.281
RRIRWRPPRLPRPRPRPVQSPRP | 0.0186
RRIRSRPPRLPRPRPRPGLAPRP | 0.444
RRIRCRPPRLPRPRPRPYKYPRP | -0.551
RRIRHRPPRLPRPRPRPKWEPRP | -0.000889
RRIRVRPPRLPRPRPRPDLHPRP | -0.0023
RRIRSRPPRLPRPRPRPAIFPRP | 0.0447

Sequence | shrunken log2 fold change
RRIRMRPPRLPRPRPRPYYYPRP | -0.304
RRIRHRPPRLPRPRPRPQINPRP | -0.827
RRIRERPPRLPRPRPRPGRWPRP | 0.796
RRIRSRPPRLPRPRPRPWAWPRP | -0.131
RRIRSRPPRLPRPRPRPSWRPRP | 0.0852
RRIRCRPPRLPRPRPRPANSPRP | -0.685
RRIRLRPPRLPRPRPRPFDSPRP | -0.174
RRIRKRPPRLPRPRPRPLEDPRP | -0.0129
RRIRWRPPRLPRPRPRPFDNPRP | -0.114
RRIRSRPPRLPRPRPRPNHPPRP | -0.0712
RRIRIRPPRLPRPRPRPLNGPRP | -0.0474
RRIRCRPPRLPRPRPRPDPNPRP | -0.00486
RRIRRRPPRLPRPRPRPFLCPRP | 0.219
RRIRERPPRLPRPRPRPYWPPRP | -0.249
RRIRMRPPRLPRPRPRPHCGPRP | -0.033
RRIRMRPPRLPRPRPRPMSHPRP | -0.121
RRIRCRPPRLPRPRPRPVWAPRP | 0.351
RRIRQRPPRLPRPRPRPLKYPRP | -0.0559
RRIRERPPRLPRPRPRPCCKPRP | -0.267
RRIRFRPPRLPRPRPRPCLTPRP | -0.134
RRIRLRPPRLPRPRPRPHFLPRP | -0.499
RRIRERPPRLPRPRPRPFSDPRP | -0.0836
RRIRNRPPRLPRPRPRPFDDPRP | -0.00192
RRIRYRPPRLPRPRPRPRQLPRP | -0.0472
RRIRNRPPRLPRPRPRPCYGPRP | -0.102

Reference: the supplement of paper PMC9112550, “Optimization of the antimicrobial peptide Bac7 by deep mutational scanning” (BMC Biology, 2022)
